According to patent publication US12383631B2, “Immune antigen specific IL-18 immunocytokines and uses thereof” (Bright Peak Therapeutics AG, priority 2022, dated 2025):

T1: human IL-18 binding protein isoform a (IL-18BPa) (Homo sapiens, UniProt O95998)
T1 sequence (O95998 31-194): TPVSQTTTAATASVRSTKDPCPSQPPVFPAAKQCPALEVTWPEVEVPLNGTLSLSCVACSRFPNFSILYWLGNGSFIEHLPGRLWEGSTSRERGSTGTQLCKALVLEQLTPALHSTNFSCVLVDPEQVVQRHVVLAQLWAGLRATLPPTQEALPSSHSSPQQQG

T2: human IL-18BP (Homo sapiens, UniProt O95998)
T2 sequence (O95998 31-194): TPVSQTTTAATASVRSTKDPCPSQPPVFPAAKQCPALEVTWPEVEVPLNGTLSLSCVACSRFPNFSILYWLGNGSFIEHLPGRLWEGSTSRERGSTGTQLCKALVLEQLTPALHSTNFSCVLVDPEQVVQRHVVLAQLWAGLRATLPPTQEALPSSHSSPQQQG


Test system: PD-1 positive (transduced) KG-1 cells
Test: IFN gamma secretion assay in PD-1 transduced KG-1 cells (Example 11)
Format: cell-based, human
Details: ratio of EC50 in PD-1 positive and parental KG-1 cells
Description: The KG-1 cell line was used to generate a PD-1 expressing cell line and furthermore, to measure IFNγ release upon incubation with TL-18 variants and corresponding TL-18 immunocytokines.
PD-1 expressing cell line generation: Briefly, KG-1 cells were transduced using lentiviral particles carrying the human PD-1 gene (PDCD1 NM_005018; Origene, CAT #: RC210364L3V) at a MOI (Multiplicity of Infection) of 30. Spinfection was performed at 1260 g during 90 min at 37° C. in the presence of 5 μg/ml of Polybrene and 10 mM of HEPES in complete culture media (RPMI, 10% FBS, 1% L-Glutamine). […]
IFNγ release was assessed in PD-1 positive (transduced) KG-1 cells, as well as in the parental PD-1 negative cells. […] The lowest concentration assessed was 0.05 fM. After incubation, IFNγ release was measured using the LEGENDplex custom human mix and match KIT (Biolegend LEGENDplex™ Human IFN-γ Capture Bead B5, 13×#740942, LEGENDplex™ P 1 Essential Immune Response Panel Detection Abs, #740931, LEGENDplex™ Buffer Set A #740368). […] Fluorescence measurements were done with a Quanteon Flow Cytometer from Acea Biosciences. For analysis, MFI values (median fluorescence intensity) were exported and plotted against concentrations used. The EC50 values (half maximal effective concentration) were calculated based on a variable slope and four parameter analysis using GraphPad PRISM software version 9.

| Molecule | PD-1^pos/PD-1^neg EC50 ratio |
| --- | --- |
| SEQ ID NO: 30: IL-18 polypeptide: E6K, V11I, C38A, K53A, T63A, C76A, C127A (protein) YFGKLKSKLSIIRNLNDQVLFIDQGNRPLFEDMTDSDARDNAPRTIFIISMYADSQPRGMAVAISVKCEKISTLSAENKIISFKEMNPPDNIKDTKSDIIFFQRSVPGHDNKMQFESSSYEGYFLAAEKERDLFKLILKKEDELGDRSIMFTVQNED | 1.336 |

Target: T1, human IL-18 binding protein isoform a (IL-18BPa)
Test: Cellular IL-18 Binding protein resistance assay in NK-92 cells (Example 13)
Format: cell-based
Details: NK92 cells, IL-18 analyte 1 nM final, IL-18BPa titrated, 1 ng/ml IL-12; read-out: IC50 IL-18BP-mediated inhibition of IFNγ secretion
Description: The NK cell line NK-92 derived from a patient with lymphoma (ATCC, Cat #CRL-2407) was cultured in aMEM medium supplemented with 20% FCS-Glutamax, 25 μM B-mercaptoEthanol, and 100 IU/ml of recombinant Human Interleukin-2 (TL-2). On the day of experiment, cells were harvested and washed with aMEM medium without IL-2. After counting, cells were seeded at 100 000 cells/well in a 384 well titer plate and incubated at 37° C./5% CO2. Sixteen 2-fold serial dilutions of Fc fused human IL-18 binding protein isoform a (IL-18BPa; R&D systems, Cat #119-BP) were prepared in aMEM medium-1 ng/ml IL-12 containing 2 nM of each IL-18 variants and were added to the NK-92 cells. Final IL-18 analytes concentration was 1 nM and final IL-18BPa concentrations ranged from to 566 nM down to 17 pM.
After 16-20 h incubation at 37° C./5% CO2, 5 μl of supernatant were carefully transferred to a 384 microwells OPTIplate (Perkin Elmer; Cat #6007270) and Interferon-gamma (IFNγ) levels measured using the Human IFNγ AlphaLISA Assay Kit (Perkin Elmer, Cat #AL217C). […] AlphaLisa signal was then measured on an Enspire plate reader (Perkin Elmer) using 680 and 615 nm as excitation and emission wavelengths respectively. Half maximal inhibitory concentration (IC50) was calculated based on a variable slope, four parameter analysis using GraphPad PRISM software.

| IC50 [nM] | Molecule |
| --- | --- |
| 488 | SEQ ID NO: 30: IL-18 polypeptide: E6K, V11I, C38A, K53A, T63A, C76A, C127A (protein) YFGKLKSKLSIIRNLNDQVLFIDQGNRPLFEDMTDSDARDNAPRTIFIISMYADSQPRGMAVAISVKCEKISTLSAENKIISFKEMNPPDNIKDTKSDIIFFQRSVPGHDNKMQFESSSYEGYFLAAEKERDLFKLILKKEDELGDRSIMFTVQNED |

Target: T2, human IL-18BP
Test: IL-18BP binding AlphaLISA assay (Example 4 / 17B)
Details: IL-18 binding protein AlphaLISA
Description: A human IL-18BP AlphaLISA Assay Kit is used to determine the binding affinity of each immunocytokine and IL-18 variant for IL-18BP, which detected the presence of free form IL-18BP.
Sixteen three-fold serial dilutions of IL-18 analytes are prepared in aMEM medium supplemented with 20% FCS, Glutamax, and 25 μM β-mercaptoethanol in the presence of 5 ng/mL of His-tagged human IL-18BP. Final IL-18 analytes concentration range from 2778 nM to 0.2 pM.
After 1 hr incubation at room temperature, free IL-18BP levels are measured using a […]. In a 384 well OPTIplate, 5 μL of 5× Anti-IL-18BP acceptor beads are added to 7.5 μL of an IL-18/IL-18BP mix. After 30 min incubation at room temperature with shaking, 5 μL of biotinylated Anti-IL-18BP antibodies are added to each well. The plate is incubated further for 1 hr at room temperature. Under subdued light, 12.5 μL of 2× streptavidin (SA) donor beads are pipetted into each well, and the wells are incubated with shaking for an additional 30 min at room temperature. The AlphaLisa signal is then measured on an Enspire plate reader with 680 and 615 nm as excitation and emission wavelengths, respectively. The dissociation constant (KD) is calculated based on a variable slope, four parameter analysis using GraphPad PRISM software.
17B—IL-18 BP AlphaLISA assay—An IL-18 binding protein AlphaLISA experiment substantially as described in Example 4 was performed on IL-18 polypeptide which can be incorporated into immunocytokine compositions as provided herein to assess ability to bind to IL-18BP.

| Kd [nM] | Molecule |
| --- | --- |
| > 2800 | SEQ ID NO: 71: IL-18 polypeptide: N-terminal G, E6K, V11I, C38A, K53A, T63A, C76A, C127A (protein, N-terminal G, IL-18 polypeptide: N-terminal G, E6K, V11I, C38A, K53A, T63A, C76A, C127A) GYFGKLKSKLSIIRNLNDQVLFIDQGNRPLFEDMTDSDARDNAPRTIFIISMYADSQPRGMAVAISVKCEKISTLSAENKIISFKEMNPPDNIKDTKSDIIFFQRSVPGHDNKMQFESSSYEGYFLAAEKERDLFKLILKKEDELGDRSIMFTVQNED |
| > 2800 | SEQ ID NO: 70: IL-18 polypeptide: N-terminal G, E6K, V11I, C38A, M51G, K53A, T63A, C76A, C127A (protein, N-terminal G, IL-18 polypeptide: N-terminal G, E6K, V11I, C38A, M51G, K53A, T63A, C76A, C127A) GYFGKLKSKLSIIRNLNDQVLFIDQGNRPLFEDMTDSDARDNAPRTIFIISGYADSQPRGMAVAISVKCEKISTLSAENKIISFKEMNPPDNIKDTKSDIIFFQRSVPGHDNKMQFESSSYEGYFLAAEKERDLFKLILKKEDELGDRSIMFTVQNED |
| > 2800 | C182: IL-18 polypeptide: E6K, V11I, C38A, K53A, T63A, C76A, C127A, V153Y (protein) YFGKLKSKLSIIRNLNDQVLFIDQGNRPLFEDMTDSDARDNAPRTIFIISMYADSQPRGMAVAISVKCEKISTLSAENKIISFKEMNPPDNIKDTKSDIIFFQRSVPGHDNKMQFESSSYEGYFLAAEKERDLFKLILKKEDELGDRSIMFTYQNED |
| > 2800 | C179: IL-18 polypeptide: E6K, K8E, V11I, C38A, K53A, T63A, C76A, Q103R, C127A (protein) YFGKLKSELSIIRNLNDQVLFIDQGNRPLFEDMTDSDARDNAPRTIFIISMYADSQPRGMAVAISVKCEKISTLSAENKIISFKEMNPPDNIKDTKSDIIFFRRSVPGHDNKMQFESSSYEGYFLAAEKERDLFKLILKKEDELGDRSIMFTVQNED |
| > 2800 | SEQ ID NO: 69: IL-18 polypeptide: E6K, V11I, C38A, M51G, K53A, T63A, C76A, C127A (protein) YFGKLKSKLSIIRNLNDQVLFIDQGNRPLFEDMTDSDARDNAPRTIFIISGYADSQPRGMAVAISVKCEKISTLSAENKIISFKEMNPPDNIKDTKSDIIFFQRSVPGHDNKMQFESSSYEGYFLAAEKERDLFKLILKKEDELGDRSIMFTVQNED |
| > 2800 | C181: IL-18 polypeptide: E6K, V11I, C38A, K53A, T63A, C76A, C127A, V153E (protein) YFGKLKSKLSIIRNLNDQVLFIDQGNRPLFEDMTDSDARDNAPRTIFIISMYADSQPRGMAVAISVKCEKISTLSAENKIISFKEMNPPDNIKDTKSDIIFFQRSVPGHDNKMQFESSSYEGYFLAAEKERDLFKLILKKEDELGDRSIMFTEQNED |
| > 2800 | SEQ ID NO: 72: IL-18 polypeptide: N-terminal 4xG, E6K, V11I, C38A, K53A, T63A, C76A, C127A (protein, N-terminal 4xG, IL-18 polypeptide: N-terminal 4xG, E6K, V11I, C38A, K53A, T63A, C76A, C127A) GGGGYFGKLKSKLSIIRNLNDQVLFIDQGNRPLFEDMTDSDARDNAPRTIFIISMYADSQPRGMAVAISVKCEKISTLSAENKIISFKEMNPPDNIKDTKSDIIFFQRSVPGHDNKMQFESSSYEGYFLAAEKERDLFKLILKKEDELGDRSIMFTVQNED |
